Laboratory results published in the DeepSol protein solubility set.

Test: soluble on expression in E. coli; label from the status in PepcDB or PDB records

Soluble on expression in E. coli, not soluble:
MGSDKIHHHHHHMAFTHTVGQHRHVFADLRTLLAKASPARSGDYLAGIAAASEEERMAARMALAAVPLTQFLSEALVPYEDDEVTRLIVDSHDAVAFAEIASLTVGDFRNWLLLHETDSTTLATVARGITPEMAAAVSKLMRNQDLIAVARKCHVVTRFRSTVGLPGRLSVRLQPNHPTDDPKGIAASIIDGLMYGCGDATIGVNPVSDSLGAIVSLLRMIDDLRCRYDIPTQSCVLTHVTHTLRAMEQGAPVDLVFQSVAGSERANAAFGISLSLLAEAHDAAQALARGTVGDNVMYFETGQGSALSANAHHGVDQQTMEARAYAVARRFSPLLVNTVVGFIGPEYLYDGKQIIRAGLEDHFCGKLLGVPMGCDVCYTNHAEADQDDMDTLLTLFGVAGINFIMGVPGADDIMLNYQSTSFHDALYLREVLGLRPAPEFEAWLQRMGIADGSGRLLEPAERQPLLELAHTL
MGSDKIHHHHHHMAGNTIGQLFRVTTFGESHGLALGCIVDGVPPGIPLTEADLQHDLDRRRPGTSRYTTQRREPDQVKILSGVFEGVTTGTSIGLLIENTDQRSQDYSAIKDVFRPGHADYTYEQKYGLRDYRGGGRSSARETAMRVAAGAIAKKYLAEKFGIEIRGCLTQMGDIPLDIKDWSQVEQNPFFCPDPDKIDALDELMRALKKEGDSIGAKVTVVASGVPAGLGEPVFDRLDADIAHALMSINAVKGVEIGDGFDVVALRGSQNRDEITKDGFQSNHAGGILGGISSGQQIIAHMALKPTSSITVPGRTINRFGEEVEMITKGRHDPCVGIRAVPIAEAMLAIVLMDHLLRQRAQNADVKTDIPRW
MGSDKIHHHHHHMAGRRAIAQNLLISNNDRQERTTRMNDKRNCFLPHDKLQHLIDSLQNAGYSCVGPQVRDGAIVYDVLTRAEQLPWGMRDHQEPGGYRLEQIPERKAFAFANGPQGIKPLLFKPQETVWRVERDEQGKLCFKPHQPDETPVAIIGSRACDLAAMSIQDKVFIENNKPDPRYKRRREQLFVVAVNCTYSSANCFCVSAGTGPAVNNSFDILMTEIEDGFVVEAGSDKGKKIMNQLDLHDAKSAQCTDAQNNVKQAAALQTKRIPLDNKRDLRDLLFSNLNHTRWDDVAERCLSCGNCTLVCPTCFCHSEVEKPGLDGCTSEHHREWDSCFTTGHTYLNGKIIRDDTKKQYRQWLTHKVGSWFDQFDTSGCVGCGRCVTWCPVGIDITEELAAISGESNARKIENE
MGSDKIHHHHHHMAIRAKTNNLIQIRPLTGRRLANSEHNRQEMKNGATVLTSKPQRLVFELTNACNLNCLMCGRNSATFELTRFNSEWFKKFEPIMSDIEEVTLMGWGEPTIHPQFKEMLQYLHERGIRKYFCTNGMRLDVLKDAIFDYEVDVFAVSMDGADAKTNEFLRRGLNYQKVIEGLKAITNEKALRGLNFPHINFVMTMMKSNIRQLPDMVDLAAELGLNEVKGVFLTAFSENLLEETLFDDMDLVRYCFGQAEERAAKLGILLKLPHQRGEDPAGDAAHKPCFTAWRDFFLGSDGYVRACMSSPEKLFHIDQYPDFESMWNSREYQEWRAQVNVPGKMCPSCGRCYQSSFANWNKEHAFIQIDTEFSPKWEK
MGSDKIHHHHHHMAKIFDIKYGNDEKQKLDLYLQDSVAPLVFYTHGGGWWQGDKRKDTKIFDSLFSAGFSVASVNYRLADKNNPYPAQLDDCHSALTFLQQSDYKFRKDKIALLGASSGANISVSLSIETGYPTVSWSGQFDFKGFLKTHTAITGRKAVDNPDPDKGSRQQSYYKWLLEKLFNGDLSRVGEATLQHKITSKTGPVLLINSAAELAPVMEVYKMQEAYLENGIEVDTIIFPGDRHALGYADDALKPTIDFLETHLQ
MGSDKIHHHHHHMAKKKTKFMCQECGYESAKWMGKCPGCQSWNSMVEEFTEVKAKSSRSYVTSGAGIAKPQPITKVEREQEPRIDTSMKELNRVLGGGIVPGSLVLVGGDPGIGKSTLLLQLSARLADLKQRVLYISGEESVKQTKIRSDRLGVLSDHLYVLAETDMEKIEQAIGEVDPTLVIIDSIQTVYQDEITSAPGSVAQVRECTASFMRIAKTTGVAIFIVGHVTKQGAIAGPKLLEHMVDSVLYFEGERHHTYRILRAVKNRFGSTNEMGIFEMKESGLEEVANPSEIFLEDRSSGVAGSTVVASMEGTRPVLVELQALISPTSFGNPRRMATGVDHNRISLLMAVLEKRVGMLLQNQDAYVNVAGGVRLDEPAIDLGIAVSIASSFRNQHTNPHEVVIGEIGLTGEVRRVSRIDQRVNEAAKLGFKRVIIPDKNLGGWTIPSTIEVIGVSTVQDALEVTLGR
